Experimental data published in patent US20230190875A1 (ACCELERON PHARMA, published 2023).

T1: activin B (UniProt P09529 293-407)
T1 sequence (looked up): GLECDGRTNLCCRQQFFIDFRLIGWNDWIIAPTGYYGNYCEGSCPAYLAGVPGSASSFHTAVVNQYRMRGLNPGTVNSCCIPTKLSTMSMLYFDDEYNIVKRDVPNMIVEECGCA

T2: BMP6 (UniProt P22004 382-513, limits assumed)
T2 sequence (looked up): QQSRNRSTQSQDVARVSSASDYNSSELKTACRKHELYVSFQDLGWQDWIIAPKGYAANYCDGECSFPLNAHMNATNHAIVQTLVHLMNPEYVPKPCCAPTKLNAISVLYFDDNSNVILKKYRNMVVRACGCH

T3: activin A (UniProt P08476 311-426)
T3 sequence (looked up): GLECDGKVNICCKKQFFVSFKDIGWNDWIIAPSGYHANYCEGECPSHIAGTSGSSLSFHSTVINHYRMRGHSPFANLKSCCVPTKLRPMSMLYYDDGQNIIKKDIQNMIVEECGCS

B1: ActRIIB homodimer Fc fusion (Fc fusion, UniProt Q13705 20-134, looked up)
chain: GRGEAETRECIYYNANWELERTNQSGLERCEGEQDKRLHCYASWRNSSGTIELVKKGCWLDDFNCYDRQECVATEENPQVYFCCCEGNFCNERFTHLPEAGGPEVTYEPPPTAPT
notes: Comparator; also called homodimeric ActRIIB Fc fusion; homomeric ActRIIB-Fc; not shown: linker and Fc domain of the homodimer are not described

Columns and labels:
Assay in all cases: SPR (Biacore); Fc fusion captured by anti-Fc antibody, ligand injected
activin B = target: T1, activin B
Experimental: (§1) A Biacore™-based binding assay was used to compare ligand binding selectivity of the single-arm ActRIIB heterodimer Fc fusion described above with that of ActRIIB homodimer Fc fusion. Single-arm ActRIIB […] Fc fusion and ActRIIB homodimer Fc fusion were independently captured onto the system using an anti-Fc antibody. Ligands were injected and allowed to flow over the captured receptor protein.

BMP6 = target: T2, BMP6
Experimental: as §1

activin A = target: T3, activin A
Experimental: as §1

[1] = target: B1
Experimental: as §1

[2] = target: T4, ActRIIA homodimer Fc fusion (UniProt P27037 21-135)
T4 construct: Comparator; also called homodimeric ActRIIA Fc fusion; not shown: linker and Fc domain of the homodimer are not described
Experimental: A Biacore™-based binding assay was used to compare ligand binding selectivity of the single-arm ActRIIA heterodimer Fc fusions described above with that of an ActRIIA homodimer Fc fusion. The single-arm ActRIIA heterodimer Fc fusions and ActRIIA homodimer Fc fusions were independently captured onto the system using an anti-Fc antibody. Ligands were injected and allowed to flow over the captured receptor protein.

T4 sequence (P27037 21-135): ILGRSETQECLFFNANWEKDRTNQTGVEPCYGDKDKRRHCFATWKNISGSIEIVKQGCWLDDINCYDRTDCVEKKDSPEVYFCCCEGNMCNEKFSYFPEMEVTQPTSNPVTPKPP

Kd [1] [nM] | koff [1] [s⁻¹] | kon [1] [M⁻¹ s⁻¹] | Kd [2] [nM] | kon [2] [M⁻¹ s⁻¹] | Binder | other results
– | – | – | – | – | B1 | Kd (activin B): 0.02 nM; koff (activin B): 0.0001 s⁻¹; kon (activin B): 5.1e+06 M⁻¹ s⁻¹; Kd (BMP6): 0.21 nM; koff (BMP6): 0.0068 s⁻¹; kon (BMP6): 3.2e+07 M⁻¹ s⁻¹; Kd (activin A): 0.019 nM; koff (activin A): 0.00023 s⁻¹; kon (activin A): 1.2e+07 M⁻¹ s⁻¹
0.078 | 0.0011 | 1.4e+07 | – | – | BMP9 (ligand, UniProt Q9UK05 320-429, looked up, also called GDF2) SAGAGSHCQKTSLRVNFEDIGWDSWIIAPKEYEAYECKGGCFFPLADDVTPTKHAIVQTLVHLKFPTKVGKACCVPTKLSPISVLYKDDMGVPTLKYHYEGMSVAECGCR | –
1.5 | 0.0022 | 1.4e+06 | – | – | GDF3 (ligand, UniProt Q9NR23 251-364, looked up, also called VGR2) AAIPVPKLSCKNLCHRHQLFINFRDLGWHKWIIAPKGFMANYCHGECPFSLTISLNSSNYAFMQALMHAVDPEIPQAVCIPTKLSPISMLYQDNNDNVILRHYEDMVVDECGCG | –
0.002 | 0.00011 | 5e+07 | 0.028 | 2.6e+07 | GDF11 (ligand, UniProt O95390 299-407, looked up, also called BMP11) NLGLDCDEHSSESRCCRYPLTVDFEAFGWDWIIAPKRYKANYCSGQCEYMFMQKYPHTHLVQQANPRGSAGPCCTPTKMSPINMLYFNDKQQIIYGKIPGMVVDRCGCS | koff [2]: 0.00072 s⁻¹
0.011 | 0.00026 | 2.3e+07 | 0.086 | 2.9e+07 | BMP10 (ligand, UniProt O95393 317-424, looked up) NAKGNYCKRTPLYIDFKEIGWDSWIIAPPGYEAYECRGVCNYPLAEHLTPTKHAIIQALVHLKNSQKASKACCVPTKLEPISILYLDKGVVTYKFKYEGMAVSECGCR | –
